Test results as given in article PMC4121272, “Two β-Galactosidases from the Human Isolate Bifidobacterium breve DSM 20213: Molecular Cloning and Expression, Biochemical Characterization and Synthesis of Galacto-Oligosaccharides” (PLoS ONE, 2014).

Key:
[1] = molecular target: β-galactosidase β-gal I from Bifidobacterium breve DSM 20213 (Bifidobacterium breve DSM 20213); experiment: SEC-MALS; Superdex S200 10/300 GL; 20 mM Tris pH 7.5, 150 mM NaCl, 1 mM β-mercaptoethanol, 5 mM EDTA; room temperature; 50 µL injected at 2.5 mg/mL; on-line MALLS and refractive index
[2] = molecular target: β-galactosidase β-gal II from Bifidobacterium breve DSM 20213 (Bifidobacterium breve DSM 20213); experiment: as above

For “β-galactosidase β-gal I from Bifidobacterium breve DSM 20213 (enzyme)”, the stoichiometry N [1] was 2.

“β-galactosidase β-gal II from Bifidobacterium breve DSM 20213 (enzyme)” showed a stoichiometry N [2] of 2.
